The substances below were run against human Mdm2 (1-125) (human) (assay: fluorescence polarisation).
Sequence of human Mdm2 (1-125) (human) (Q00987 1-125): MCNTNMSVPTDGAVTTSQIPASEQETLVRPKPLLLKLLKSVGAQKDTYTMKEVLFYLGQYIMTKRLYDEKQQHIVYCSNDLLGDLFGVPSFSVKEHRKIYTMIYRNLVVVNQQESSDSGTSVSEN

Point of comparison: “azide-ATSP-7041 (L1N, E5N, A8N, S12N, A13N, A14N) (peptide)”, Kd 15 nM. Against it:
- azide-ATSP-7041 (MP-081) with Cba10 substituted with Ala (peptide) — 7.7-fold higher, 115 nM
- azide-ATSP-7041 (MP-081) with Cba10 substituted with Leu (peptide) — 3.7-fold higher, 56 nM
- azide-ATSP-7041 (L1D, E5D, A8D) (peptide) — 3-fold lower, 5 nM
- MP-793 (all-D di-alkyne stapled analog of ^dPMI-δ(5-12 staple)) (peptide) — lower, < 1 nM
- azide-ATSP-7041 (MP-081) E5P (peptide) — 520-fold higher, 7800 nM
- azide-ATSP-7041 (MP-081) (peptide) — 3-fold lower, 5 nM
- MP-444: Ac-K(N3)-TF(X)EYWAQ(Cba)(X)EAFAAF-NH2 (peptide) — 10-fold lower, 1.5 nM
